According to publication PMC10397247:

Key:
P9A-bA = target: T1, P9A-bA; assay: two-hybrid library CCNG1;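 also: natural log of median RNA to DNA barcode read ratio; higher means stronger binding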
T1 chain: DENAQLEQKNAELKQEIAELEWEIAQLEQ

P7A-bA = target: T2, P7A-bA; assay: two-hybrid library CCNG1;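 also: natural log of median RNA to DNA barcode read ratio; higher means stronger binding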
T2 chain: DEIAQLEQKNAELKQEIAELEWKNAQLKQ

P5A-bA = target: T3, P5A-bA; assay: two-hybrid library CCNG1;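 also: natural log of median RNA to DNA barcode read ratio; higher means stronger binding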
T3 chain: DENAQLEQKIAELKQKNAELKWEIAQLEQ

P6A-bA = target: T4, P6A-bA; assay: two-hybrid library CCNG1;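 also: natural log of median RNA to DNA barcode read ratio; higher means stronger binding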
T4 chain: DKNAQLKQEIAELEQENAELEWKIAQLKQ

P1A-bA = target: T5, P1A-bA; assay: two-hybrid library CCNG1;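 also: natural log of median RNA to DNA barcode read ratio; higher means stronger binding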
T5 chain: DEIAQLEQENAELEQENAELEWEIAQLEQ

P3A-bA = target: T6, P3A-bA; assay: two-hybrid library CCNG1;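 also: natural log of median RNA to DNA barcode read ratio; higher means stronger binding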
T6 chain: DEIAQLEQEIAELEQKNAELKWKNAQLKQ

P4A-bA = target: T7, P4A-bA; assay: two-hybrid library CCNG1
T7 chain: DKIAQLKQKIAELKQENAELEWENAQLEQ

P8A-bA = target: T8, P8A-bA; assay: two-hybrid library CCNG1
T8 chain: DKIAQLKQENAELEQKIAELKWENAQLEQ

P12A-bA = target: T9, P12A-bA; assay: two-hybrid library CCNG1
T9 chain: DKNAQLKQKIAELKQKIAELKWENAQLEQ

P2A-bA = target: T10, P2A-bA; assay: two-hybrid library CCNG1
T10 chain: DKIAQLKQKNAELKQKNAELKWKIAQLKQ

4H3129-AA = target: T11, 4H3129-AA; assay: two-hybrid library CCmax; settings: mean of both orientations
T11 chain: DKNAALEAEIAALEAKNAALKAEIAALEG

4H1360-AA = target: T12, 4H1360-AA; assay: two-hybrid library CCmax; settings: mean of both orientations
T12 chain: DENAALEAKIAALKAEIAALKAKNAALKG

4H2774-AA = target: T13, 4H2774-AA; assay: two-hybrid library CCmax; settings: mean of both orientations
T13 chain: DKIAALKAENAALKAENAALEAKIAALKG

4H1454-AA = target: T14, 4H1454-AA; assay: two-hybrid library CCmax; settings: mean of both orientations
T14 chain: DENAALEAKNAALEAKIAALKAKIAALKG

4H2728-AA = target: T15, 4H2728-AA; assay: two-hybrid library CCmax; settings: mean of both orientations
T15 chain: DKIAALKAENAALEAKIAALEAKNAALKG

4H380-AA = target: T16, 4H380-AA; assay: two-hybrid library CCmax; settings: mean of both orientations
T16 chain: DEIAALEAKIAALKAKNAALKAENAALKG

4H2699-AA = target: T17, 4H2699-AA; assay: two-hybrid library CCmax; settings: mean of both orientations
T17 chain: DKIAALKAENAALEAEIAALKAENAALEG

4H3629-AA = target: T18, 4H3629-AA; assay: two-hybrid library CCmax; settings: mean of both orientations
T18 chain: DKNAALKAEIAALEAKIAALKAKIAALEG

4H446-AA = target: T19, 4H446-AA; assay: two-hybrid library CCmax; settings: mean of both orientations
T19 chain: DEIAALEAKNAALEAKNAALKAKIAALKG

4H130-AA = target: T20, 4H130-AA; assay: two-hybrid library CCmax
T20 chain: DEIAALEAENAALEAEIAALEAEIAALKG

4H63-AA = target: T21, 4H63-AA; assay: two-hybrid library CCmax; settings: mean of both orientations
T21 chain: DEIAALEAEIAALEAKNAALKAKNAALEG

4H1558-AA = target: T22, 4H1558-AA; assay: two-hybrid library CCmax; settings: mean of both orientations
T22 chain: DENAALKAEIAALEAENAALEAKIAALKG

4H2621-AA = target: T23, 4H2621-AA; assay: two-hybrid library CCmax; settings: mean of both orientations
T23 chain: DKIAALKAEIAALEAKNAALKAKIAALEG

4H3595-AA = target: T24, 4H3595-AA; assay: two-hybrid library CCmax; settings: mean of both orientations
T24 chain: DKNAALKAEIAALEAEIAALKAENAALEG

4H483-AA = target: T25, 4H483-AA; assay: two-hybrid library CCmax; settings: mean of both orientations
T25 chain: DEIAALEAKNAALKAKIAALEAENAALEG

4H249-AA = target: T26, 4H249-AA; assay: two-hybrid library CCmax; settings: mean of both orientations
T26 chain: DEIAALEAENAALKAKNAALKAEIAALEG

4H341-AA = target: T27, 4H341-AA; assay: two-hybrid library CCmax; settings: mean of both orientations
T27 chain: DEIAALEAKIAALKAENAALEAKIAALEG

4H464-AA = target: T28, 4H464-AA; assay: two-hybrid library CCmax; settings: mean of both orientations
T28 chain: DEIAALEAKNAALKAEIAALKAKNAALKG

4H3939-AA = target: T29, 4H3939-AA; assay: two-hybrid library CCmax; settings: mean of both orientations
T29 chain: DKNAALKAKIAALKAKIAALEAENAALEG

4H3414-AA = target: T30, 4H3414-AA; assay: two-hybrid library CCmax; settings: mean of both orientations
T30 chain: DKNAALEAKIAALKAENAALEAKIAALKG

4H3782-AA = target: T31, 4H3782-AA; assay: two-hybrid library CCmax; settings: mean of both orientations
T31 chain: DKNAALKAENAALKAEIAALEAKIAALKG

4H3049-AA = target: T32, 4H3049-AA; assay: two-hybrid library CCmax; settings: mean of both orientations
T32 chain: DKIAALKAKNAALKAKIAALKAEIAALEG

4H1349-AA = target: T33, 4H1349-AA; assay: two-hybrid library CCmax; settings: mean of both orientations
T33 chain: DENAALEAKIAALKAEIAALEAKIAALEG

4H1913-AA = target: T34, 4H1913-AA; assay: two-hybrid library CCmax; settings: mean of both orientations
T34 chain: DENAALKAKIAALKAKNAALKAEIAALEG

4H3969-AA = target: T35, 4H3969-AA; assay: two-hybrid library CCmax; settings: mean of both orientations
T35 chain: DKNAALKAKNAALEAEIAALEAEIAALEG

4H2961-AA = target: T36, 4H2961-AA; assay: two-hybrid library CCmax
T36 chain: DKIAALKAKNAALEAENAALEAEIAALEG

4H2903-AA = target: T37, 4H2903-AA; assay: two-hybrid library CCmax; settings: mean of both orientations
T37 chain: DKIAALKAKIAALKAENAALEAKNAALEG

4H2580-AA = target: T38, 4H2580-AA; assay: two-hybrid library CCmax; settings: mean of both orientations
T38 chain: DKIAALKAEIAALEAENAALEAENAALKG

P2-AA-1HAA-T = target: T39, P2-AA-1HAA-T; assay: two-hybrid library CCmax; settings: mean of both orientations
T39 chain: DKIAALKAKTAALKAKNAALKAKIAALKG

P2-AA-1HAA-R = target: T40, P2-AA-1HAA-R; assay: two-hybrid library CCmax; settings: mean of both orientations
T40 chain: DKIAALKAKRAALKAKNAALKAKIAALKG

P2-AA = target: T41, P2-AA; assay: two-hybrid library CCmax; settings: mean of both orientations
T41 chain: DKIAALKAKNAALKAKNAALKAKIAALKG

P2-AA-1HAA-E = target: T42, P2-AA-1HAA-E; assay: two-hybrid library CCmax; settings: mean of both orientations
T42 chain: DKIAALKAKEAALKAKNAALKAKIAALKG

P2-AA-1HAA-K = target: T43, P2-AA-1HAA-K; assay: two-hybrid library CCmax; settings: mean of both orientations
T43 chain: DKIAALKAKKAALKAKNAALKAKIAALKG

P2-AA-1HAA-S = target: T44, P2-AA-1HAA-S; assay: two-hybrid library CCmax; settings: mean of both orientations
T44 chain: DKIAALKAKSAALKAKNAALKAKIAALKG

B1: P12A-bA (peptide)
chain: DKNAQLKQKIAELKQKIAELKWENAQLEQ
For B1, which interaction score (P9A-bA) is on record?
Its interaction score is 0.0326.

And the interaction score (P7A-bA)?
Its interaction score is -1.88.

What about the interaction score (P5A-bA) of the same binder?
The interaction score was -1.16.

What about the interaction score (P6A-bA) of the same binder?
The interaction score was -0.314.

What about the interaction score (P1A-bA) of the same binder?
Its interaction score is -0.14.

What about the interaction score (P3A-bA) of the same binder?
The interaction score was 0.536.

What about the interaction score (P4A-bA) of the same binder?
The interaction score was -1.03.

What about the interaction score (P8A-bA) of the same binder?
Its interaction score is -1.32.

What about the interaction score (P12A-bA) of the same binder?
Its interaction score is -0.937.

What about the interaction score (P2A-bA) of the same binder?
The interaction score was -1.29.

B2: 4H130-AA (peptide)
chain: DEIAALEAENAALEAEIAALEAEIAALKG
Which interaction score (4H3129-AA) does the source give for B2 here?
Its interaction score is -0.746.

And the interaction score (4H1360-AA)?
The interaction score was 1.22.

And the interaction score (4H2774-AA)?
The interaction score was 0.9.

And the interaction score (4H1454-AA)?
The interaction score was 1.52.

And the interaction score (4H2728-AA)?
Its interaction score is 0.54.

What about the interaction score (4H380-AA) of the same binder?
The interaction score was -0.0955.

What about the interaction score (4H2699-AA) of the same binder?
The interaction score was -0.46.

And the interaction score (4H3629-AA)?
Its interaction score is 0.896.

And the interaction score (4H446-AA)?
Its interaction score is 1.05.

And the interaction score (4H130-AA)?
Its interaction score is 1.11.

And the interaction score (4H63-AA)?
Its interaction score is -1.29.

And the interaction score (4H1558-AA)?
Its interaction score is -0.952.

And the interaction score (4H2621-AA)?
Its interaction score is 0.962.

And the interaction score (4H3595-AA)?
Its interaction score is 0.698.

And the interaction score (4H483-AA)?
The interaction score was 0.0918.

And the interaction score (4H249-AA)?
The interaction score was 1.18.

What about the interaction score (4H341-AA) of the same binder?
Its interaction score is 0.154.

What about the interaction score (4H464-AA) of the same binder?
Its interaction score is 1.95.

And the interaction score (4H3939-AA)?
Its interaction score is 1.29.

And the interaction score (4H3414-AA)?
The interaction score was 1.

And the interaction score (4H3782-AA)?
Its interaction score is 1.3.

And the interaction score (4H3049-AA)?
Its interaction score is 1.67.

What about the interaction score (4H1349-AA) of the same binder?
Its interaction score is -0.443.

What about the interaction score (4H1913-AA) of the same binder?
The interaction score was 1.08.

And the interaction score (4H3969-AA)?
Its interaction score is -0.404.

And the interaction score (4H2961-AA)?
The interaction score was -0.589.

What about the interaction score (4H2903-AA) of the same binder?
The interaction score was -1.15.

And the interaction score (4H2580-AA)?
The interaction score was -1.46.

B3: P1-AA-1HAA-E (peptide)
chain: DEIAALEAEEAALEAENAALEAEIAALEG
For B3, which interaction score (P2-AA-1HAA-T) is on record?
The interaction score was 1.66.

And the interaction score (P2-AA-1HAA-R)?
The interaction score was 1.9.

And the interaction score (P2-AA)?
Its interaction score is 1.82.

And the interaction score (P2-AA-1HAA-E)?
The interaction score was 0.691.

What about the interaction score (P2-AA-1HAA-K) of the same binder?
The interaction score was 1.57.

And the interaction score (P2-AA-1HAA-S)?
The interaction score was 1.57.
